Measured values as given in the DeepSol protein solubility set.

Assay: soluble on expression in E. coli; label from the status in PepcDB or PDB records

Sequence	soluble on expression in E. coli
MGSDKIHHHHHHMNNIFLILGCAKQRWQDLEIICEYVKKTYSLTTMLMVNKAHKEFYSVCDQVIEVDLSDQNFIALASRLLSEQKVSGGLLFADQALLHGTKLFEQLGIVCDNSELGINSYSKLEFRRQEKRYFSHAAKTHYFVPEFSKVNSLQDVHAFAVKYPDGFILKPISEGGSRGVLKLHAQSDFGAAYKQVECYQADGLMCEQLIPTFREFSFDGVGDISFITEKLVATGAHPVEVGQIVPAELTCDSAEKISAHGRLMNLWVGQQLGAFHNEIAYLESQGSTAAIESNRRSGGMGIWNLAEKVFGENLFHRWVDVAMGQTVEHIPLNATGKAMSCMLGSRENLIDDLTMITAQIQEVLAFELGPDIELFSLRWLHTQPHMLPSIPQSNFDFLAEACIYCAHFDLSNQALYERVQRAWDKCLYIGMKEEKCA	not soluble
MGSDKIHHHHHHMNNINEKSTYHHGDLRETLLVVATEMLQENGIKEVSLRKLASRVGVSRTAPYHHFKDKNALLCGMAEKGFEQLHQINKCGYEDGELSIREHFYRFIHDYIQFAHNNPDLYELMFGRTIWKDKSSTQELRDSAYPCFQFQVAMTQEWQKKGLFNVDDNALRVSQVLWGTVHGIAKLFIDGIYTDNSKIDEICDYAVSMFLSNSKK	not soluble
MGSDKIHHHHHHMNNKPVVGISGCLTGATVRFDGGHKRMDFVMNSLAPWVAYKPICPEVAIGLPVPRPALRLIQTTCGDIRMRYSHAPHDDVTERMNAFADRFLPTIGELAGFIVCAKSPSCGMERVRLYDEKGNRGRKAGTGLFTAAMMDKYPWLPIEEDGRLHDPVLRENFIARIFALHELNALRAQGLSRHSLLAFHSRYKLQLLAHHQAGYREIGPFVARLHEWDDLDAFFVRYREKLMAILRHPASRKNHTNVLMHIQGYFHRALNSRQRAELREVILGYRAGRLPILAPLTLLKHYLAEHPDDYLRSQNYFEPYPDTLGLRLAIT	not soluble
MGSDKIHHHHHHMNPLAVELNDLLAQHNPHVLEMLSDLGKNLFFPKGILTQSAEAKEKAHKFNATIGIATENGGPMYLQCIQDKLSAFDPKDIYPYAPPAGKPELRSLWREKMLRENPSQQGKHFSNPIVTNALTHGLSIAGDMFLDKGDHLILPDMLWGNYNLTFGTCCGAVIRKYPTFTATGGYDVDAFKAELKNSAEEKGKAVVLLNFPNNPSGYTPTVAEGDALVAAIKEVAEGGCNIVAITDDAYFGLFYEDSLKESLFGKLANLHPRILAVKLDGATKEEFVWGFRTGFITFADGNSYENTPVMTALEKKAMGIIRARISNCPHPSQTFAIEALRSPNFIKQKQEKFQVLKGRALKTKEVLNSGKYDKAWDYYPFNSGYFMCLKLKTVDAEKLRVHMLDKYGVGAISIGKTDLRIAFSCIDEKDIPELFATIHQAVQDLS	not soluble
MGSDKIHHHHHHMNQEKIQELVSRSQQDDKRAFALLVSEFQPLVFRLAFRLLCDEEEARDITQETFVKVWLSLKTYNQENRLSTWLYKITCNTCYDRLRSLRHSPLDNESAFSDSVNIPSDDHIEISLSNKQLKELILRYTNELPPQQKLVFTLRDVEELEVAEVQIITGLSPEKIKSTLYLARKNIRNKMNQIDPDL	not soluble
MGSDKIHHHHHHMNQSETDMIERIFTATDALMATVGLPNLSMHKIAREAKISPGTIYIYFKNKEELLTQFARYIFQNFQDVLKEGYDERQPFFQQYRKMWWNIWHFLEAEPTIMANMGQYESLPGFSDICQKWESDSIWYHFCVKAKAAGELADVPPPILFAISLESAFNIAFKCRHFCAQVSMEMLEAVIERTWLAIKN	not soluble
MGSDKIHHHHHHMNRIAEEVGLQKASVYHHYAEKDTLLLALVDYVVEELRYRIVQPDDEDPRQQLRRFIDEVVFGHHAGPDATALSPPTDGTIRAFIQIRAQAVHDDDYREQITTIDRIQQEHIAEIIQRGVDAGEFRDVDPTQVASFISTLLTGVFTRRVTMTTDLTPVREATHAYLEAVLVA	not soluble
MGSDKIHHHHHHMNSGEYKYIWQASDWPNWRFDLAALAEPMAEVSRAQGLLMGRLADVGMALRDQASLAALTEDVVKTSEIEGEQLNVESVRSSIARRLGVDIGALAPVDRHVEGVVEMVLDATANCQALVSRERLFGWHAALFPTGYSGLSKINVGGWRDDATGPMQVVSGPIGRQRVHFEAPPADRLETETSRFLDWLNGTLNEPPLLKAGLGHLWFVTLHPFDDGNGRIARAIGDLLLARADGSPQRFYSLSAQIQRERKAYYDILERTQKRSMDVTEWLAWFLDTLHRAVDQAQHTLDAVLTKARFWQRWATTPLNERQVKLLNKLLDGFEGKLTSSKWAAIAKCSPDTALRDINDLLTRGVLRKSDAGGRSTSYELNDLPE	not soluble
MGSDKIHHHHHHMNTDSPLKAIQPPADEQAWAVRARRQFEAEQLLYAYVEYIDDDRLEELPELFTEDGSYQIISRENVERGLPAPTMGCSNRNMLIDRIVSLRHANIYSQHAYRHVLSNVRVKAMEGDEALVQSNYVVMATRGDGIARVYSTGKYVDRLVFEEDGPKFKQKRVIFDTQLIDTLLVRPL	not soluble
MGSDKIHHHHHHMNYCSIVSSNVVKGKAKELGFHKVGIAAVNESTNAEAERLQAWIKLGYHADMEWMNNPKRSDISLIMPEARSLVCVALNYYTPHQRPDSAEYAKISRYGWGRDYHKVMNRKLKALTTWLQSLDPSIQARYYADTGPVQDKVWAQRAGIGWIAKNGNVITRAYGSWVFLGEVVTNLELEKDSPHTEHCGSCTRCLDACPTGAITQPFVVDANRCIAYHTIENRAAELPEAIASQMQGWVAGCDICQDVCPWNQRFAQTTDVVDFQPYPDNIAPKLIELAQISDEEWDKQFPASALRRIKPEMLRRNARANLDASKRNNDPESNHF	not soluble
MGSDKIHHHHHHMNYKTSIADNVTEKEISEKLGISLSTVKRSVSRLKNNKNLIDKVISNNVIAEGSYKTYNKYHVAKCNEDFFYIYNSFFNDDMNIAKASERIKIKNFLLKLKAICKKETNKYISESPYMDGLNKAELSKKLGIIDTKTLNKYLEMAVNAGQIKYITNGLLILNKSIIPDFKKDDTDTRIYHIIYDWCIDNDVVPPDRNDEIKIMEDGSVRRKNSLLLEIAGKLGYMKDEEIRSLLTNRITSEEITLEYIAKVLNIKNKKKKEEIEWPPIIMLD	not soluble
MGSDKIHHHHHHMNYLVYQSYGSKDILNECCYSILSLLKHGINKNETRIVIYTDQPEYFSFLPAATLEFVQMSADIIADYKGVHAFVHRLKIKILQDAVTRFQGTILYVDSDIYFLKSIEPLFASISKTNLLMCNNEGRIHTGGNRIFEKFSAFIKKNTDYLKQHHIPIPYDITMWNAGVIGFLSTEKELLEKVLYTNDTIYNKFQSHVVEQLSFSYQLQKQGTLNAATDYLYHYWNFKEFRIVLAEFFKYHLNRGSVEQMIQDIDSIRPDVLIKPKLEYETLPFLKKNIRKLGGKKNRWKFPAYTIGQAATI	not soluble
MGSDKIHHHHHHMPADSVRPTWSLTDIPYATIEKEKIIGNTDWFYLLAGASFVETLSDLYTRNLVEYYQENVGATTWLRQEWEMEEVQHGHALRRYVLFVWPDFDWERAYQGFVTAYAPCCRTELLGPTHALEMASRCVVETGTASFYTMIQAASPEPVLRQIAAHIRADEVHHYKYFYRIFRQYQAAEKNSRWRIGRELWKRVAEAEQEDSYLAIKNAFEVKNPGEKFFIEDFAAFRKRIGGWVDRYYPFDMAIKMLLKPVALPPMLQRAALPLLSHGARRAILG	not soluble
MGSDKIHHHHHHMPAILDLFNQKTVLDYVQNRQYPQLLGDTLFPSVKIDQLDFEYLRGGSKTPIIASVSAFDTEAEIGSREASVQAAELGYIKRKMQLKEKDLIALRNPRTPAEQNYLTSLVYNDLDVLVQGVYARVEKMRMEALATGTISIDENNMNFGVTYNVPAEHQVTAATSWDADGADPIKDLQDWFALLDYAPTRILTSSKVQTALIRSKAFADYFKTAGLLPSVGSLNAVLQSFGLPTIVTYDAKYRKQGANGIYTVERYFPEDTLVAFGDDQLGQTVYGPTPEESRLIATPGVQQGTVGNVFTTVYETTQDPIATWEKAAATALPSFPEAENVLQAKVLIPKP	not soluble
MGSDKIHHHHHHMPDTTHATIRSARLGDVEHILAEYRQAVAELPREESANLLWRPYDEFKAAVENGLFFVIENAVGSFMAGAGVFDLPGSVEKELGMCYVKKEWRGYGLQNLLLQIRICAATLGHVPDKSGEDAATKSFAALITGVKPANEHSAANTERLGFEPLPTPPSALFNACASCRTPPARDSGRKCCCDFFYLSDARRAEAIEKSLQMENWSRTRNGHGLIVALKIRHLLDIDFRNALHDIVQELRAQEPRVPTPGKQVK	not soluble
MGSDKIHHHHHHMPEFMKPIHSVILIQNLQARIETCAEMAVNVFQNLNTASLLCPSNTGGWSIVQCLDHLNSYGDYYLPHIQKAFDTHMPGKPAEDVKSSWLGNYFTQLMLPDSGKKYKAFKKHIPKPRLDSAAVVATFIEQQEILLTYLEKAKKYDMNTIRISISIAPFIKLKLGDVFQFLVAHTERHVQQAQRNVPIYE	not soluble
MGSDKIHHHHHHMPEFRKDPIIKRWVIIATERAKRPHDFARTKVEEVREGFCPFDYGNEHTTPPEIFAFRPADTEPNTPGWWVRVVPNKFPAVDPNAPLRKYGRGMYDAAMGFGYHDVVVETPDHNSHLAVMDYKNVEEVIWAYKIRYEQLMKDERIKYILIFKNHGRDAGASLSHPHSQIIALPIMPKRVQEELDGSKEYYEYKERCPFCDIIDEEKRERERIVEENDHFIALEPFAARFPFETWILPKRHMNSFHLISEDEVGSLAKILKNVLYRIYAALDNPPYNLLIHTAPTSLEGKDYYHWHIEIFPRLTKVAGFEWGTGFYINTVPPEDAARYLREVSLEQV	not soluble
MGSDKIHHHHHHMPIKALRLKAMQLKATRLKAKLLQARLLQASALLGTSLNLVAMAAPYNAINESIDDGFVEAGDILVIAIPATGYLASWLYDDFEGAKQLTFSVLTTQLIVEATKSTVGRYRPNSNVAGGSYKSFPSGHSAGAFSGAAFLQSRYGSRWGIPAYLGAGVVAASRVHGRRHYADDVLGGAGIAILVNQYFVERYDNQGLAVSLFPNDEGGLQFNLSMPLDGPLNGRAGPRAEKRAQPAVHGPKRHRFAVNLGFNMTDSLGMAGAKDLLPDSQLVDDHQPFSYLLYEYLDSSKTSLQLELSPNETRLFGTLSGEFELDGKQYQDGDSLYLAFKQWSLGSQYFYRFAPQGDWHFKLGGGLYAYWVELEVDYLTGGQYAGEGSLEVMPSIEGRTRYHIGGGLSADAMARFQAWSGNQLVAAEAGLSYALGEEWVMGLKYAYSEAKWDALNMEYQTDSIVLTVENRF	not soluble
MGSDKIHHHHHHMPKYLVFMDIDGTLLTDHQYVSERTRATIERFQKQDVLFYIATGRMYELAKIVRDKVNADVRLVTSNGAVFDGAQGRELTKLGGAAVELAYLIARRDNLPMMLFTPDMAYYTEQIPRFVARNAANFDADEVSIGYEEVKSFTQLATIEDQITNGVILSREDMSRLDSAREKLTNSKLLRLSSSNPNNIEMIPLNTDKGTAVKQIQREQHVDAAHTFVFGDGLNDVGMMAEADLSVAMGNALPQVKKVANYVTDMNYNDGLALFLEKYFAAHPLSTTK	not soluble
MGSDKIHHHHHHMPLKTPPCVRRHTTGHETCSAQRSEHDGRRHLFPHDARALEIQERDVTHPIVSSEVPVEYINLPEPQTEGGMPLMTALHKRRSVRSFAQRPLDEALLSTLLWAAFGINRPDTGLRTAPSARNWQEIDVYVAMPDGLYALEPAAWRLRLVTGEDLRAATGLQDYVSTAPLDLVYVSRLSKLDETDKPMRQFYTALDTGYISQNVYLFCAASGLATVARGLLDRRALAKAMRLDPDQRVVLAQSVGFPA	not soluble
MGSDKIHHHHHHMPLPQVTMQELPWKMKKSLSRSTLRSPNGFSEIGLKLEMVSQDALRRTIFPLGGLTKEFVKKIAAENRLHHVLQKKESMGMCFIGKRNFEHFLLQYLQPRPGHFISIEDNKVLGTHKGWFLYTLGQRANIGGLREPWYVVEKDSVKGDVFVAPRTDHPALYRDLLRTSRVHWIAEEPPAALVRDKMMECHFRFRHQMALVCCVLQGGRVPGQREDPAAGAVCLHAPEGPAQSWDGH	not soluble
